Experiments:
Assay in all cases: cell_activity
[1] = test system: CCR5 ZFN pair, wild-type ZC linker (8266 with partner) (artificial); details: average of 2
[2] = test system: CCR5 ZFN pair, L6a linker (artificial); details: average of 2
[3] = test system: CCR5 ZFN pair, L7a linker (artificial); details: average of 2
[4] = test system: mROSA ZFN pair, Wt/Wt linkers (artificial); details: Neuro2A, CEL-I; replicates 23.2, 18.7; mock 0.4
[5] = test system: mROSA ZFN pair, Wt/L7a linkers (artificial); details: Neuro2A, CEL-I; mock 0.4
[6] = test system: rat IgM ZFN pair, ZC linkers (artificial); details: rat C6 cells, CEL-I
[7] = test system: rat IgM ZFN pair, L7a linker (artificial); details: rat C6 cells, CEL-I

| Substance | activity [1] | activity [2] | activity [3] | further results |
| --- | --- | --- | --- | --- |
| CCR5 target, 4 bp gap | 1.2 % NHEJ |  |  |  |
| CCR5 target, 5 bp gap | 35 % NHEJ | 39.3 % NHEJ |  |  |
| CCR5 target, 6 bp gap | 11.1 % NHEJ | 25.4 % NHEJ | 31.8 % NHEJ |  |
| GTCATCCTCATCCTGAGTTTAAACTGCAAAAG (double strand) [CCR5 target, 8 bp gap] |  |  | 6.1 % NHEJ |  |
| GTCATCCTCATCCTGGTTTAAACTGCAAAAG (double strand) [CCR5 target, 7 bp gap] |  | 5.1 % NHEJ | 39.6 % NHEJ |  |
| mROSA target, 6 bp gap |  |  |  | activity [4]: 22.6 % NHEJ; activity [5]: 7.5 % NHEJ |
| rat IgM target, 6 bp gap |  |  |  | activity [6]: 1.93 % NHEJ; activity [7]: 2.43 % NHEJ |

— patent US20150064789
